Series [1] addresses T1, MAO B (Homo sapiens, UniProt P27338).
T1 construct: expressed in transfected cells; host or cells: COS-7 (African green monkey), riboflavin-containing (Rib+) or riboflavin-depleted (Rib-), transient electroporation
T1 sequence (P27338 1-520): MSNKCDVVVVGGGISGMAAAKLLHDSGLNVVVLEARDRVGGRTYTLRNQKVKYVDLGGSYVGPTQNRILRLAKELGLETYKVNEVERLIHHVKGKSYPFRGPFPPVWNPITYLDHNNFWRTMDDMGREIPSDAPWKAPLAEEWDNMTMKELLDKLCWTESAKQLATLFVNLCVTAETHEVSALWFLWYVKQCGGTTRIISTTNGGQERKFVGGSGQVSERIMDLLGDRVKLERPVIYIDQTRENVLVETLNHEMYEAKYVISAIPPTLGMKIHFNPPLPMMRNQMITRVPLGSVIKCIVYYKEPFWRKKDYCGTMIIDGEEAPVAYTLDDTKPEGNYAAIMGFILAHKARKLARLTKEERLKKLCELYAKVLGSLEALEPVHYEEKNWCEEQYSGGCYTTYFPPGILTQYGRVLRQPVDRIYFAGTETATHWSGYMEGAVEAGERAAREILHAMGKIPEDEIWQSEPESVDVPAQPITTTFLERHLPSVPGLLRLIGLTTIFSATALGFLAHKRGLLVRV
The series can be described thus: MAO B enzymatic activity in COS-7 cells during riboflavin depletion. The format is cell-based. As for the experimental part:
Mammalian COS-7 cells were grown in Dulbecco's Modified Eagle Medium (DMEM, Gibco) supplemented with 10% fetal bovine serum (FBS, Gibco) at 37° C. with 5% CO2. Since this medium (DMEM+10% FBS) contains riboflavin, COS-7 cells grown in this medium were defined as riboflavin-containing COS-7 cells (Rib^+ COS-7 cells). MAO B holoenzyme was obtained by expressing MAO B cDNA in Rib^+ COS-7 cells. Mammalian COS-7 cells were also grown in riboflavin-free medium (riboflavin-free DMEM+10% dialyzed FBS, Gibco) at 37° C. with 5% CO2, with fresh riboflavin-free medium changed every 48-72 hours. COS-7 cells grown in riboflavin-free medium for longer than 100 days were defined as riboflavin-depleted (Rib^-) COS-7 cells. Apo-MAO B was obtained by expressing MAO B cDNA in Rib^- COS-7 cells. COS-7 cells were grown in riboflavin-free medium for greater than 5 months without any detectable change in morphology.
Wild-type or mutant MAO B cDNAs were transiently transfected into COS-7 cells by electroporation (23) as previously described (18). […]
MAO B activity was assayed radiometrically by a modification of the method of Wurtman and Axelrod (26) as described previously (18). […] The reaction product was extracted with 500 μl of toluene, and an aliquot (200 μl) of the organic phase from each sample was counted in liquid scintillation fluid (Bio-Safe) in a Beckman LB 3801 scintillation counter. […]

The target of series [2] is T1, MAO B. The series can be described thus: Quantitation of expressed MAO B protein by ELISA in transfected COS-7 cells. It is filed as cell-based. Also on record: MAO B Expressed: unit not given here. As for the experimental part:
(§1) Total protein concentrations of samples containing MAO B holoenzyme, apoenzyme, or variant MAO Bs were determined by a MicroBCA kit (Pierce). All samples were then adjusted to equal protein concentrations and assayed for MAO B protein by ELISA using a modification of the method of Yeomanson and Billett (25) as described previously (18).
MAO B cDNA was expressed sequentially at different time intervals in these cells during this riboflavin depletion process (FIG. 2). Each data point in FIG. 2 represents an individual expression assay. For each assay, a sample of COS-7 cells grown in riboflavin-free medium were transfected with MAO B cDNA via electroporation. Concurrently, Rib^+ COS-7 cells were transfected with MAO B cDNA to serve as a control. Following incubation for 48 hours, the cells were homogenized and assays were performed to determine protein concentration, MAO B concentration by ELISA using polyclonal antibodies, and MAO B activity using [^14 C] benzylamine.
An equal amount of MAO B cDNA (15 μg) was expressed in both types of […]

The target of series [3] is T1, MAO B. The series is described as follows: FAD coupling in vitro (flavinylation assay in cell lysate, 30° C.). To be noted: up to 3 hours at 30° C. The format is biochemical. As for the experimental part: (- - - x - - - ). […] The enzymatic activity of each sample was determined at 1 hour time intervals using [^14 C] benzylamine as substrate.
Apo-MAO B was obtained by expressing MAO B cDNA in Rib^- COS-7 cells. The cells were then harvested and homogenized as described above. One half of the lysate was stirred in the presence of 0.25% Triton X-100 at 4° C. for 50 min. to extract apo-MAO B from the outer mitochondrial membrane. The second half of the lysate was not extracted with Triton X-100 to permit MAO B to remain in the membrane. […] Assays were also carried out in the presence of an energy mixture (10 mM ATP, 32 mM PEP and 2.4 μg pyruvate kinase) and 25% glycerol in the reaction vials. Each sample was run in triplicate. After 1, 2 or 3 hours incubation at 30° C., each sample was assayed for MAO B activity as described below.
(§2) MAO B activity was assayed radiometrically by a modification of the method of Wurtman and Axelrod (26) as described previously (18). Briefly, the reaction mixture contained 200 μl of 50 mM sodium phosphate buffer (pH 7.4), 3.6 nmole of 55 mCi/mmol [^14 C] benzylamine hydrochloride (Amersham), 10 nmoles of unlabeled benzylamine and 10 μl of cell lysate. Samples were run in triplicate, and one out of each set was denatured with […] of 6N HCl prior to the addition of substrate to serve as an internal control. All reactions were incubated for 9 minutes at 37° C., and terminated by the addition of 25 μl of 6N HCl. The reaction product was extracted with 500 μl of toluene, and an aliquot (200 μl) of the organic phase from each sample was counted in liquid scintillation fluid (Bio-Safe) in a Beckman LB 3801 scintillation counter.

For series [4], the target named is T1, MAO B. The series is described as follows: FAD coupling in intact cells: MAO B enzymatic activity after electroporation of MAO B cDNA with cofactor into Rib^- COS-7 cells ([^14 C] benzylamine substrate). The format is cell-based. Also on record: Percent of Holo-MAO B Activity: concentration or dose not given beside the values. As for the experimental part:
Wild-type or mutant MAO B cDNAs were transiently transfected into COS-7 cells by electroporation (23) as previously described (18). Briefly, Rib^+ - or Rib^- COS-7 cells were harvested during late log phase growth and resuspended to a concentration of 3.1×10^6 cells/ml in either riboflavin-containing or riboflavin-free medium, respectively. Wild-type or mutant MAO B cDNAs ([…]) were added to 0.8 ml of cell suspension. […] Electroporation was carried out in a Bio-Rad Gene Pulser with a setting of 250 V and 500 μF. Cells were resuspended in 15 ml of riboflavin-containing or riboflavin-free medium and incubated at 37° C. with 5% CO2. Transfected COS-7 cells were harvested at 48 hours and homogenized in a lysis solution containing 20 mM Tris-HCl, 1 mM EDTA, 0.5 mM PMSF, pH 8.0. The homogenate was diluted with an equal volume of the same buffer supplemented with 300 mM NaCl to obtain a 150 mM final NaCl concentration. Triton X-100 (Pierce) was added to the lysate to give a final concentration of 0.25%, and the samples were allowed to stir for 50 min. at 4° C. to extract MAO B from the outer mitochondrial membrane. After Triton extraction, the lysate was centrifuged at 1300×g for 5 min. at 4° C. to remove insoluble cell debris.
as §2
FMN or riboflavin were also capable of restoring approximately 75% of MAO B holoenzyme activity. However, only 40% of MAO B holoenzyme activity was obtained by the addition of 8α-hydroxyriboflavin.
Various cofactors were added with MAO B cDNA into Rib^- COS7 cells

The target in series [5] is T1, MAO B. The series is described as follows: Subcellular fractionation of transfected Rib^+ and Rib^- COS-7 cells: distribution of MAO B and activity. The format is cell-based. Particulars: for Fraction activity: Rib^+ COS-7. How it is done:
COS-7 subcellular fractionation was carried out with a modified method of Clark and Waterman (24). Transfected Rib^+ - or Rib^- COS-7 cells were harvested, washed twice with ice-cold PBS, and pelleted by microcentrifugation at 500×g for 5 minutes. The cells were then homogenized in a Dounce homogenizer. Greater than 95% of the cells were lysed, as determined by trypan blue staining. The homogenate was diluted with an equal volume of 10 mM Tris-HCl, 1 mM EDTA, pH 8.0, to obtain a 0.25M final sucrose concentration and layered over 0.5 volume of 0.5M sucrose pad (0.5M sucrose in 10 mM Tris-HCl, 1 mM EDTA, pH 8.0). The solution was centrifuged at 5,000 rpm for 3 minutes using a swinging bucket rotor (TLS.55, Beckman TL-100) to remove cell debris and nuclei (P1 fraction). The supernatant plus the interface of the 0.5M sucrose pad was again layered over another 0.5M sucrose pad, and centrifuged as above at 17,000 rpm for 20 minutes to isolate mitochondria (P2 fraction). The resulting supernatant was centrifuged at 70,000 rpm (TL100.3, Beckman TL-100) for 30 minutes to sediment microsomes (P3 fraction). The final supernatant was the cytosol (S). After subcellular fractionation, P1, P2 and P3 were resuspended in 20 mM Tris-HCl, 1 mM EDTA, 0.5 mM PMSF, 150 mM NaCl, pH 8.0. All samples were treated with Triton X-100 to extract MAO B, and then protein concentrations, MAO B concentrations and enzymatic activities were determined.
as §1, §2
Transfected Rib^+ or Rib^- COS7 cells (1.2 × 10^7

The mark [6] stands for this setting: COS-7 cells grown in riboflavin-free medium for 76 days.
Where [7] appears, read: cofactor added with MAO B cDNA into Rib^- COS-7 cells, 48 hours, mean ± SE, three experiments.
Where [8] appears, read: Mitochondria (P2), listed as holo-MAO B.

Regarding monoamine oxidase B [MAO B], the “MAO B activity, % of MAO B holoenzyme activity in Rib^+ COS-7 cells” value in series [1] (100 days in riboflavin-free medium) is “less than 5%”. The “MAO B activity” value in series [1] (after 116 days in riboflavin-free medium) is listed as “nearly undetectable”. Moreover, the Expression in series [2] (setting [6]) is 0.90 μg MAO B/mg prot; in series [2] (Rib^+ COS-7), 0.86 μg MAO B/mg prot. Besides, the “[MAO B]” value in series [2] (setting [6]) amounted to 3.70 µg/mL; in series [2] (Rib^+ COS-7), 3.50 µg/mL. In addition, the “MAO B expression level” value in series [2] (during riboflavin depletion, regardless of time in riboflavin-free medium) is reported as 0.95±0.04 μg/mg protein.

B1: Holo-MAO B: obtained by expressing MAO B cDNA in Rib^+ COS-7 cells, which served as a positive control (protein, UniProt P27338 2-520, looked up)
Amine oxidase …: SNKCDVVVVGGGISGMAAAKLLHDSGLNVVVLEARDRVGGRTYTLRNQKVKYVDLGGSYVGPTQNRILRLAKELGLETYKVNEVERLIHHVKGKSYPFRGPFPPVWNPITYLDHNNFWRTMDDMGREIPSDAPWKAPLAEEWDNMTMKELLDKLCWTESAKQLATLFVNLCVTAETHEVSALWFLWYVKQCGGTTRIISTTNGGQERKFVGGSGQVSERIMDLLGDRVKLERPVIYIDQTRENVLVETLNHEMYEAKYVISAIPPTLGMKIHFNPPLPMMRNQMITRVPLGSVIKCIVYYKEPFWRKKDYCGTMIIDGEEAPVAYTLDDTKPEGNYAAIMGFILAHKARKLARLTKEERLKKLCELYAKVLGSLEALEPVHYEEKNWCEEQYSGGCYTTYFPPGILTQYGRVLRQPVDRIYFAGTETATHWSGYMEGAVEAGERAAREILHAMGKIPEDEIWQSEPESVDVPAQPITTTFLERHLPSVPGLLRLIGLTTIFSATALGFLAHKRGLLVRV
modifications: FAD holoenzyme
notes: obtained by expressing MAO B cDNA in Rib^+ COS-7 cells, which served as a positive control
Turning to B1, in series [2] (setting [7]), the “MAO B Expressed” value came out at 1.05 ± 0.25. Moreover, the “stability of enzymatic activity in cell lysate” value in series [3] was “remained fully active”. Also, the “Enzymatic Activity” value in series [4] (setting [7]) was 1.13 ± 0.14 μmol benzylamine/minute/mg MAO. Further, the “Percent of Holo-MAO B Activity” value in series [4] (relative to holo-MAO B expressed in Rib^+ COS-7 cells) is 100%. Also, the “Fraction activity, percentage of total” value is on record as 4.5% in series [5] (Cell debris (P1)); 3.7% in series [5] (Cytosol (S)); 8.6% in series [5] (Microsome (P3)); 83.3% in series [5] (Mitochondria (P2)); “Approximately 80%” in series [5] (setting [8]). Also, the “MAO B amount” value was 58 ng in series [5] (Cell debris (P1)), 45 ng in series [5] (Cytosol (S)), 96 ng in series [5] (Microsome (P3)) and 760 ng in series [5] (Mitochondria (P2)). Moreover, the “MAO B, percentage of total amount” value is 6.1% in series [5] (Cell debris (P1)); 4.7% in series [5] (Cytosol (S)); 10% in series [5] (Microsome (P3)); 79.3% in series [5] (Mitochondria (P2)); “Approximately 80%” in series [5] (setting [8]). In addition, the Fraction activity in series [5] (Cell debris (P1)) was 0.6 10^-4 mmol/minute; in series [5] (Cytosol (S)), 0.48 10^-4 mmol/minute; in series [5] (Microsome (P3)), 1.11 10^-4 mmol/minute; in series [5] (Mitochondria (P2)), 10.8 10^-4 mmol/minute.

(Values after patent publication US5863776A, “Method of preparing apoenzyme” (Research Development Foundation, priority 1996, dated 1999).)
